We go through four molecules from patent US7083777B1, “Immunomodulating polymers” (priority 1999, dated 2006).

The conditions of assay [1]: 0.01% solution of about 1500 kDa HA; model normally produces more than 70% adhesions; cited from earlier work.
The subject of assay [2] is B. fragilis. Nature of the assay: Rat model of intraabdominal sepsis, abscess formation after B. fragilis challenge. Format: in vivo. The following applies: 50 μg dose.
The test system of assay [3] is human T cells. The class given is cell-based. As to conditions: 20 μg/ml, 6 days post-incubation.
Assay [4] has as its system B. fragilis. Nature of the assay: Protection against abscess formation by recombinant cytokine given intracardially at challenge. The class given is in vivo, rat. The following applies: 100 pg intracardiac at time of challenge, 10^8 cfu B. fragilis; Experiment A.
For assay [5], the system named is B. fragilis. Nature of the assay: IL-10-mediated protection against abscess formation. Format: in vivo, rat. On the procedure: In order to examine further the role of IL-10 in the abscess model, male Wistar rats (150 g) were treated with recombinant IL-10, anti-IL-10, or isotype antibody control beginning on the day of challenge with 1×10^8 cfu B. fragilils. Further comparison was made using a group treated with Streptococcus pneumoniae type I CP alone or together with anti-IL-10. Animals were sacrificed and examined six days after challenge.

[6] abbreviates: 0.2 μg i.p. at 0, 24, 48 and 72 hours relative to challenge.

On to hyaluronic acid [HA], for which the “prevention of severe intra-abdominal adhesions (in words)” value in assay [1] is “effectively prevents all severe intra-abdominal adhesions”. For poly-L-lysine, the “Protection against abscess formation vs saline (in words)” value in assay [2] was “did not protect against abscess formation”. In addition, in assay [3], the “T cell activation (in words)” value is recorded as “did not stimulate T cell proliferation”.

B1: IL-4: interleukin 4 given at 100 pg as comparison (protein, UniProt P05112 25-153, looked up)
Interleukin-4: HKCDITLQEIIKTLNSLTEQKTLCTELTVTDIFAASKNTTEKETFCRAATVLRQFYSHHEKDTRCLGATAQQFHRHKQLIRFLKRLDRNLWGLAGLNSCPVKEANQSTLENFLERLKTIMREKYSKCSS
With B1, in assay [4], the “Abscess formation (%)” value is recorded as 75%.

B2: recombinant IL-10: recombinant interleukin-10 (protein, UniProt P22301 19-178, looked up)
Interleukin-10: SPGQGTQSENSCTHFPGNLPNMLRDLRDAFSRVKTFFQMKDQLDNLLLKESLLEDFKGYLGCQALSEMIQFYLEEVMPQAENQDPDIKAHVNSLGENLKTLRLRLRRCHRFLPCENKSKAVEQVKNAFNKLQEKGIYKAMSEFDIFINYIEAYMTMKIRN
Consider B2, for which, in assay [5] (0.2 μg i.p.), the “Protection against abscess formation vs isotype control antibody (in words)” value is given as “protected from abscess formation”. In assay [5] (setting [6]), the “Abscess formation (%)” value was 13% and the “No. animals with abscess/total” value is reported as 2/16.
